Target: ubiquitin-methionine-dihydrofolate reductase (mouse) (UniProt P00375)

- deubiquitination in vitro (extract of E. coli expressing Yuh1), share of the fusion deubiquitinated: < 50%
Substance: Yuh1 ubiquitin-specific protease (from UniProt P35127) (enzyme)

— patent publication US5683904
